Where only a bound is given, the exact number is not on record here.

From the Immune Epitope Database (IEDB) come the findings set out here.

One test addresses HLA-B*44:03. Description: IEDB peptide-MHC binding, purified MHC/competitive/radioactivity; filed as Kd, often an IC50 or EC50 that approximates it; ≥ and ≤ were set here for values at or beyond the usual limits of such assays.
In a further test the target is HLA-B*18:01. Described as above.
Another test addresses HLA-B*44:02. The test is described as above.
In a further test the target is HLA-B*45:01. The description is as above.
Another test addresses HLA-B*40:01. The test is described as above.
A further test deals with HLA-B*40:02. Described as above.
Test [1] addresses HLA-A*26:01. The experiment in a line: IEDB peptide-MHC binding, purified MHC/competitive/fluorescence; filed as Kd, often an IC50 or EC50 that approximates it; ≥ and ≤ were set here for values at or beyond the usual limits of such assays. The settings on record: source organism: Actinobacillus pleuropneumoniae serovar 1 str. 4074.
Another test addresses HLA-A*23:01. The experiment in a line: IEDB peptide-MHC binding, purified MHC/competitive/radioactivity; filed as Kd, often an IC50 or EC50 that approximates it; ≥ and ≤ were set here for values at or beyond the usual limits of such assays. The settings on record: source organism: Dengue virus 4 Philippines/H241/1956.
The next test concerns the target HLA-B*35:01. The description is as above. The settings on record: source organism: Dengue virus 4 Philippines/H241/1956.
A further test concerns the target HLA-B*53:01. The description is as above. As to conditions: source organism: Dengue virus 4 Philippines/H241/1956.
The target of the next test is HLA-B*51:01. The test is described as above. The settings on record: source organism: Dengue virus 4 Philippines/H241/1956.
Test [2] has as its target HLA-A*26:01. The experiment in a line: IEDB peptide-MHC binding, purified MHC/direct/fluorescence; filed as Kd, often an IC50 or EC50 that approximates it; ≥ and ≤ were set here for values at or beyond the usual limits of such assays. The settings on record: source organism: Giardia lamblia ATCC 50803.
In a further test the target is HLA-B*15:01. The experiment in a line: IEDB peptide-MHC binding, purified MHC/competitive/fluorescence; filed as Kd, often an IC50 or EC50 that approximates it; ≥ and ≤ were set here for values at or beyond the usual limits of such assays. As to conditions: source organism: Bacillus anthracis str. A0488.
The mark [3] stands for this setting: source organism: Mammarenavirus machupoense.
The mark [4] stands for this setting: source organism: Mammarenavirus juninense.
[5] abbreviates: source organism: SARS coronavirus Tor2.
[6] abbreviates: source organism: Mammarenavirus lassaense.

As for EELSLMYEAL, the Kd (as a rule, the free concentration of one partner at which half of the binding sites on the other are occupied at equilibrium, for simple one-to-one binding) in the test with HLA-B*44:03 (setting [3]) amounted to 2 µM; with HLA-B*18:01 (setting [3]), 1.81 µM; with HLA-B*44:02 (setting [3]) it was 1.79 µM; with HLA-B*45:01 (setting [3]), 1.59 µM; in the test with HLA-B*40:01 (setting [3]) it was 15.4 µM; in the test with HLA-B*40:02 (setting [3]) it was 0.205 µM.

Consider HDLPLLCNL, for which the Kd with HLA-B*44:03 (setting [4]) was 4.11 µM; with HLA-B*18:01 (setting [4]), 12.2 µM; with HLA-B*44:02 (setting [4]), 1.49 µM; with HLA-B*45:01 (setting [4]) it was no less than 77.7 µM; with HLA-B*40:01 (setting [4]) it was no less than 38.1 µM; with HLA-B*40:02 (setting [4]), 0.0152 µM.

Turning to DEFIQRYKL, the Kd in the test with HLA-B*44:03 (setting [5]) is 8.8 µM; with HLA-B*18:01 (setting [5]) it was 0.0479 µM; in the test with HLA-B*44:02 (setting [5]), 15.9 µM; with HLA-B*45:01 (setting [5]), no less than 25.9 µM; with HLA-B*40:01 (setting [5]), no less than 23.9 µM; with HLA-B*40:02 (setting [5]), 2.5 µM.

As to EEPVSLLPLS, the Kd is 1.87 µM in the test with HLA-B*44:03 (setting [3]); no less than 38.4 µM with HLA-B*18:01 (setting [3]); 5.71 µM in the test with HLA-B*44:02 (setting [3]); 0.565 µM with HLA-B*45:01 (setting [3]); 7.39 µM in the test with HLA-B*40:01 (setting [3]); 6.15 µM with HLA-B*40:02 (setting [3]).

GETPIAYRNV: the Kd with HLA-B*44:03 (setting [5]) is no less than 22.7 µM; with HLA-B*18:01 (setting [5]), no less than 59.5 µM; with HLA-B*44:02 (setting [5]), no less than 38.1 µM; with HLA-B*45:01 (setting [5]), 0.698 µM; with HLA-B*40:01 (setting [5]), 1.65 µM; with HLA-B*40:02 (setting [5]) it was 0.281 µM.

For DLYRMYSRY, in the test with HLA-A*26:01 [1], the Kd stood at 0.301 µM.

For the sequence MALKDFKEF, the values for the Kd in the test with HLA-A*23:01, with HLA-B*35:01 and in the test with HLA-B*53:01 were 0.154 µM, 0.077 µM and 0.139 µM, respectively.

Turning to LPESLETLM, the Kd in the test with HLA-B*35:01 turned out to be 0.47 µM; with HLA-B*53:01, 0.557 µM; with HLA-B*51:01 it was 2.45 µM.

Consider FEIKSAKKF, for which the Kd with HLA-B*44:03 (setting [5]) turned out to be 0.0353 µM; in the test with HLA-B*18:01 (setting [5]), 1.08 µM; with HLA-B*44:02 (setting [5]), 0.0159 µM; in the test with HLA-B*45:01 (setting [5]) it was 18 µM; with HLA-B*40:01 (setting [5]), 1.71 µM; with HLA-B*40:02 (setting [5]), 0.621 µM.

MVSIQWHAM registered a Kd in the test with HLA-A*26:01 [2] of 3.76 µM.

RLMATKNIY yielded a Kd in the test with HLA-B*15:01 of 0.136 µM.

With REVLSDREL, the Kd is 1.12 µM with HLA-B*44:03 (setting [5]); 7.33 µM with HLA-B*18:01 (setting [5]); 1.22 µM with HLA-B*44:02 (setting [5]); 1.39 µM with HLA-B*45:01 (setting [5]); 0.0156 µM with HLA-B*40:01 (setting [5]); 0.102 µM with HLA-B*40:02 (setting [5]).

REVSTAAVT: the Kd is 6.86 µM with HLA-B*44:03 (setting [5]); 16.9 µM with HLA-B*18:01 (setting [5]); 16 µM with HLA-B*44:02 (setting [5]); 0.0303 µM with HLA-B*45:01 (setting [5]); 0.112 µM with HLA-B*40:01 (setting [5]); no less than 21.1 µM with HLA-B*40:02 (setting [5]).

Turning to SESDLEFSW, the Kd with HLA-B*44:03 (setting [6]) came out at 0.0074 µM; with HLA-B*18:01 (setting [6]), 0.277 µM; in the test with HLA-B*44:02 (setting [6]), 0.00902 µM; with HLA-B*45:01 (setting [6]), 1.65 µM; in the test with HLA-B*40:01 (setting [6]), 14.9 µM; with HLA-B*40:02 (setting [6]), 0.414 µM.
